Kd, dH and stoichiometry N data for one substance are collected here from paper PMC5832153.

For this experiment, the target named is FliC-aGFP_ENH_V2 (Salmonella) (UniProt P06179). The experiment can be described thus: ITC; sfGFP (0.065 mM) injected in 10 μl portions into FliC-aGFP_ENH in the cell; 25 °C; 20 mM Tris-HCl, 150 mM NaCl, pH 8.5; one-binding-site model. A general note: ITC needs no label: the signal is the heat of the interaction.
Sequence of UniProt P06179 (P06179 whole entry): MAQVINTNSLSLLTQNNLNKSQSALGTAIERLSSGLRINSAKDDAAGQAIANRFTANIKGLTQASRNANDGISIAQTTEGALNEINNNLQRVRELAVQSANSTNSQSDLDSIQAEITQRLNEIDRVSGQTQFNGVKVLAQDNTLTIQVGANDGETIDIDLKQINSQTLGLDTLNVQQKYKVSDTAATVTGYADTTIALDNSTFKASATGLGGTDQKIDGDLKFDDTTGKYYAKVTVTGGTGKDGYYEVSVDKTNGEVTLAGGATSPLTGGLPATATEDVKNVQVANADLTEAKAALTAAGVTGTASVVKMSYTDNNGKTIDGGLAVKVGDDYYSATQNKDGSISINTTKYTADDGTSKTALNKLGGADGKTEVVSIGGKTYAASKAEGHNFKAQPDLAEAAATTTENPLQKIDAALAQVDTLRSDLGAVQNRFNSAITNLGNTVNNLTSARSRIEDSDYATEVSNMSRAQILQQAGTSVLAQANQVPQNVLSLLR

With “C-terminally His-tagged superfolder GFP (from UniProt P42212 1-238) (natural protein)”, the Kd (as a rule, the concentration at which binding is half-saturated) came to 1.1 nM; the dH is -9.3 kcal/mol; the stoichiometry N (as a rule, the number of molecules, sites or subunits per partner or assembly) was determined as 0.86.
